Key:
Smc4 = target: T1, Smc4 (S. cerevisiae, UniProt Q12267 1-1418); test: cryo-EM structure; condensin pentamer (Smc2, Smc4, Brn1, Ycs4, Ycg1) with 80 bp dsDNA, ADP and BeF3; separate maps of the head module and of Ycg1-DNA from one dataset; conditions: both partners purified
T1 construct: Smc4, SMC subunit of budding yeast (S. cerevisiae) condensin, wild type; Only the head domain and proximal coiled coil are resolved in the maps; also called SMC4-3xStrepII
T1 sequence: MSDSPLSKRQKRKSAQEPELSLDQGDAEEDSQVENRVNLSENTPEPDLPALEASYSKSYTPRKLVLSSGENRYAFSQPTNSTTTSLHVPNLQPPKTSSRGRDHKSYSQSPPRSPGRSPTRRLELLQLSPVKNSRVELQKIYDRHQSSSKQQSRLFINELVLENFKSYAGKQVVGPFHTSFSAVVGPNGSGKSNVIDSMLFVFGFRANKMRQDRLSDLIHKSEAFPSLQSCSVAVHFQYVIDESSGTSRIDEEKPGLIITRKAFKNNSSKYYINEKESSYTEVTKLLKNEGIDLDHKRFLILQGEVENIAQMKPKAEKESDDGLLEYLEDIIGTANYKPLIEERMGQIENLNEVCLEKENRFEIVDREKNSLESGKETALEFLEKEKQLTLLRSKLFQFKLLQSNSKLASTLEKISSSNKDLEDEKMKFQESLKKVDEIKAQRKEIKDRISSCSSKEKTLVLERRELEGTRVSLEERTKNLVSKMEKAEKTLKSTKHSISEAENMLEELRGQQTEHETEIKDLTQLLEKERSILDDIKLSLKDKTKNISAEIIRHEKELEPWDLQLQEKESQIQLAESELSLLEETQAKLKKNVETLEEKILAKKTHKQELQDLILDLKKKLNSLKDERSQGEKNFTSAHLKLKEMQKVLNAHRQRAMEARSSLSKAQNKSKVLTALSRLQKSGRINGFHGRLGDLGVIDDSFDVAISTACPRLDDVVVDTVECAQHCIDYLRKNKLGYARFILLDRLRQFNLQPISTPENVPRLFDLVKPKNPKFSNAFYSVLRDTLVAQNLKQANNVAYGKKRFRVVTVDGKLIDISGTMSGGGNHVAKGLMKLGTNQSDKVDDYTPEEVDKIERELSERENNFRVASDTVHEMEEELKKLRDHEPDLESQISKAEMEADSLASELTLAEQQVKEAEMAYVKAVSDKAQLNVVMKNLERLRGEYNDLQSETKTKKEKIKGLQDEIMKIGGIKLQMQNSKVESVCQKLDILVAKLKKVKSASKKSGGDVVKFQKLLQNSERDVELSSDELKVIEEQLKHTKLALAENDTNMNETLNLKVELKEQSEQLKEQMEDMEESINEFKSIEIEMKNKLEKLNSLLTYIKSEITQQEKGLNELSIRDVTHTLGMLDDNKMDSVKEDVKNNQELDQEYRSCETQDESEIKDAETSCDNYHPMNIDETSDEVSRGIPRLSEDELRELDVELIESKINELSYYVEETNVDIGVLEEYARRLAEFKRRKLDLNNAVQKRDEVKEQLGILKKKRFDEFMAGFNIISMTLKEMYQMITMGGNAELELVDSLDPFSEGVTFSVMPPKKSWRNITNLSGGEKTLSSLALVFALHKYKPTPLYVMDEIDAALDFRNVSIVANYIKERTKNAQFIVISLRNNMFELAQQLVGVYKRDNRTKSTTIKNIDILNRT

Ycg1 = target: T2, Ycg1 (S. cerevisiae, UniProt Q06680 1-1035); test: as above; conditions: both partners purified
T2 construct: Ycg1, HAWK subunit of budding yeast (S. cerevisiae) condensin, wild type
T2 sequence: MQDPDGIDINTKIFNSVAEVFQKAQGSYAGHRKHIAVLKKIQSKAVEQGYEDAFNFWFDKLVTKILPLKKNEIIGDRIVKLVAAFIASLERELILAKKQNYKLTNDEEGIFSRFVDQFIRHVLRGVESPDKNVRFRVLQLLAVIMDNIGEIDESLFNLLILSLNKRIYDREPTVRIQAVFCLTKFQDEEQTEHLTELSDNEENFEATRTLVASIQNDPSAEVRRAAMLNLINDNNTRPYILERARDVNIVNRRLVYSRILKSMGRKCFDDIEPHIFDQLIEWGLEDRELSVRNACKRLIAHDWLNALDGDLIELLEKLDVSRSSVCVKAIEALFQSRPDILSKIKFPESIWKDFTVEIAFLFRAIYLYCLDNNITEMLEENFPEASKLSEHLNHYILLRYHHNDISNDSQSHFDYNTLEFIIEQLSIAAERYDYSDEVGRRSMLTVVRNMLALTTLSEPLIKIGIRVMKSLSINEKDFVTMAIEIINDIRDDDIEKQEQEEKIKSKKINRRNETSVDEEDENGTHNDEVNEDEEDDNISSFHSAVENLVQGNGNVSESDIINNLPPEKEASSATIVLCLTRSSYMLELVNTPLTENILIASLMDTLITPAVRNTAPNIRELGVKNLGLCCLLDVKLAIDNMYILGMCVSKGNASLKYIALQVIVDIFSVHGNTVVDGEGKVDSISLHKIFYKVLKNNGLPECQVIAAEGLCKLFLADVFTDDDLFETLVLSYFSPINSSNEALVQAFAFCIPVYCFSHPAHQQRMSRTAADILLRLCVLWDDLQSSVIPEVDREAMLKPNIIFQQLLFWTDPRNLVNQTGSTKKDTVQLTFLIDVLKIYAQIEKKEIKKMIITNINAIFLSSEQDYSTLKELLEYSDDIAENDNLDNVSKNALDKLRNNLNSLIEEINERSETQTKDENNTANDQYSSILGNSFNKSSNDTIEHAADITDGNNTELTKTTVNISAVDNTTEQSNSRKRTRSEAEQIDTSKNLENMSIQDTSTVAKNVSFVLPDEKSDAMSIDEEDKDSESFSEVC

binding result (Smc4): binds
binding result (Ycg1): binds
B1: Brn1 (natural protein, S. cerevisiae)
chain: MTTQLRYENNDDDERVEYNLFTNRSTMMANFEEWIKMATDNKINSRNSWNFALIDYFYDLDVLKDGENNINFQKASATLDGCIKIYSSRVDSVTTETGKLLSGLAQRKTNGASNGDDSNGGNGEGLGGDSDEANIEIDPLTGMPISNDPDVNNTRRRVYNRVLETTLVEFETIKMKELDQELIIDPLFKKALVDFDEGGAKSLLLNTLNIDNTARVIFDASIKDTQNVGQGKLQRKEEELIERDSLVDDENEPSQSLISTRNDSTVNDSVISAPSMEDEILSLGMDFIKFDQIAVCEISGSIEQLRNVVEDINQAKDFIENVNNRFDNFLTEEELQAAVPDNAEDDSDGFDMGMQQELCYPDENHDNTSHDEQDDDNVNSTTGSIFEKDLMAYFDENLNRNWRGREHWKVRNFKKANLVNKESDLLEETRTTIGDTTDKNTTDDKSMDTKKKHKQKKVLEIDFFKTDDSFEDKVFASKGRTKIDMPIKNRKNDTHYLLPDDFHFSTDRITRLFIKPGQKMSLFSHRKHTRGDVSSGLFEKSTVSANHSNNDIPTIADEHFWADNYERKEQEEKEKEQSKEVGDVVGGALDNPFEDDMDGVDFNQAFEGTDDNEEASVKLDLQDDEDHKFPIRENKVTYSRVSKKVDVRRLKKNVWRSINNLIQEHDSRKNREQSSNDSETHTEDESTKELKFSDIIQGISKMYSDDTLKDISTSFCFICLLHLANEHGLQITHTENYNDLIVNYEDLATTQAAS
notes: Brn1, kleisin subunit of budding yeast (S. cerevisiae) condensin, wild type; also called kleisin Brn1; BRN1-HA3-His12
